This data set addresses T1, RIG-I full length (UniProt O95786 O95786:1-925).
T1 sequence: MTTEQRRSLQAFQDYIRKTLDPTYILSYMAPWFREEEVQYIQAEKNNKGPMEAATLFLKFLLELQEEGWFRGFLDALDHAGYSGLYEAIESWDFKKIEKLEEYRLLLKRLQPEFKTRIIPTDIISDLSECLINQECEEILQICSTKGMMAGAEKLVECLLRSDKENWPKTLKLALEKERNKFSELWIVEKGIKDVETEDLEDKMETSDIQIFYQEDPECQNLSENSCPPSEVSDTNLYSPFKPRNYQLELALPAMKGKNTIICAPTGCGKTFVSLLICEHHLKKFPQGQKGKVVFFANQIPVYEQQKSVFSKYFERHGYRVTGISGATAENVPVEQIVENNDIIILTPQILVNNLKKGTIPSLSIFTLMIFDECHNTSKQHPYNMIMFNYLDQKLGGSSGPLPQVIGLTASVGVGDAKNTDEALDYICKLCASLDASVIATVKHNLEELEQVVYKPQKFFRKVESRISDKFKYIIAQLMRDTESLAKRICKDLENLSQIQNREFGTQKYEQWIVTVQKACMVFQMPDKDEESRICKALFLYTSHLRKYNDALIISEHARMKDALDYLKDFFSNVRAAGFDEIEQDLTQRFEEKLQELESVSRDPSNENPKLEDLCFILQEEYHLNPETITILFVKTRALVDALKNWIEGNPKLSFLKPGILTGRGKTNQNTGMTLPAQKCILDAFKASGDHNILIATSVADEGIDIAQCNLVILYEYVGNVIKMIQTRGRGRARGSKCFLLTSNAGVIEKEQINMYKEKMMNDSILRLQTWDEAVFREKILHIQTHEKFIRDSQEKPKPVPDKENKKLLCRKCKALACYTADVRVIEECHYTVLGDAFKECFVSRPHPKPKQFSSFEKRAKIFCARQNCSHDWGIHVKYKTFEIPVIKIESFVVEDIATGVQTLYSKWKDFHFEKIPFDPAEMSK
In words: EMSA; with ATP; 6 pmol RNA, 0-20 pmol RIG-I; affinity equivalent to poly U/UC. The following applies: stem-loop motif 70-114, complementary 5' and 3' ends. (In EMSA bound probe runs differently from free probe, usually more slowly.)

B1: DVG-268 ivtRNA (ssRNA)
RNA: ACCAGACAAGAGUUUAAGAGAUAUGUAUCCUUUUAAAUUUUCUUGUCUUCUUGUAAGUUUUUCUUGCUAUUGUCAUAUGGAUAAGUCCAAGACUAUCUUUAUCUAUGUCCACAAGAUUGGUAACUGGGUCAUUCCCUGACCAGAAGUUUGAAGCAAGACUUCCCGGUACCUGGAAGUCUUGGACUUAUCCAUAUGACAAUAGUAAGAAAAACUUACAAGAAGACAAGAAAAUUUAAUAGGAUACAUAUCUCUUAAACUCUUGUCUGGU
modifications: 5'-triphosphate (T7 transcript)
Turning to B1, the binding result is reported as “binds”.

The values above are taken from patent US10624964, “Methods and compositions for stimulating immune response using potent immunostimulatory RNA motifs” (The Trustees of the University of Pennsylvania).
